The text below walks through data of patent publication US20060104978A1, “Methods and compositions for PDGF-C activation and inhibition” (LUDWIG INSTITUTE FOR CANCER RESEARCH, priority 2003, published 2006).

The test system of experiment [1] is tPA. Nature of the experiment: Ni-NTA pull-down of purified tPA by His6-tagged recombinant proteins. The following applies: Ni-NTA beads coated with His6-tagged protein, 1 μg purified tPA, 2 hours room temperature, eluted with imidazole. In kind it is binding, human. As for the experimental part: The possibility of a direct protein-protein interaction between tPA and latent PDGF-CC was explored by developing a pull-down assay. Ni-NTA beads were allowed to bind recombinant His6-tagged latent PDGF-CC or PDGF-DD, and purified tPA was added and incubated. Following extensive washings, bound proteins were subsequently eluted with an imidazole-containing buffer, and the eluates were analyzed by immunoblotting using specific antibodies.
Chain of tPA (P00750 36-562): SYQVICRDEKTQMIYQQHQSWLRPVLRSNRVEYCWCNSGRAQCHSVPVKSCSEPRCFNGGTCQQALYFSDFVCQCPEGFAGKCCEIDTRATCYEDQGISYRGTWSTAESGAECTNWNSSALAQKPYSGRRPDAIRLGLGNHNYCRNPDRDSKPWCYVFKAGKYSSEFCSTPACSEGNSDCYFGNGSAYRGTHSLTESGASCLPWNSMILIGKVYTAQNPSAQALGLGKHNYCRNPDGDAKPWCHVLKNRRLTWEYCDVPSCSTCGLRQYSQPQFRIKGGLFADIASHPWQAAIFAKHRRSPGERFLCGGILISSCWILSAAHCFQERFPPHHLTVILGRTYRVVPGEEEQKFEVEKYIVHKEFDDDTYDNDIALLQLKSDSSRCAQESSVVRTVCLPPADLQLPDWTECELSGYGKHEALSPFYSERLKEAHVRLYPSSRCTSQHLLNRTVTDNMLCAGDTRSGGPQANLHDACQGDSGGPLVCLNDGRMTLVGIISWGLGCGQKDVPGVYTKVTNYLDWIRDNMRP
To determine a direct protein-protein interaction between tPA and PDGF-CC, His6-tagged recombinant protein species were bound to Ni-NTA-agarose (Qiagen) and then incubated with 1 μg of purified tPA for 2 hours at room temperature. Uncoated and PDGF-DD coated Ni-NTA beads were used as controls. The beads were washed thoroughly, and His6-tagged proteins were specifically eluted with 400 mM imidazole. Eluted proteins were analyzed by SDS-PAGE under reducing conditions and immunoblotted with antibodies against human tPA (see above). The membranes were subsequently stripped and reprobed with specific antibodies.

Experiment [2] deals with tPA. Nature of the experiment: Cotransfection assay in COS-1 cells: PDGF-CC forms and mutants coexpressed with tPA. The class given is cell-based, human. The note with it: over-expression of free CUB domain (CUBc-myc) with full-length PDGF-C and tPA in COS-1 cells. From the text: The structural requirements for recognition of full-length PDGF-CC as a substrate for tPA were mapped by analysis of several mutated forms of PDGF-CC using the co-transfection assay. The mutants of PDGF-CC included a chimeric form of PDGF-C carrying the CUB domain from PDGF-D and the hinge region and growth factor domain of PDGF-C (mutant PDCUBPC), and several truncation mutants lacking the CUB domain and increasing parts of the hinge region (schematically illustratrated in FIG. 6A). All mutants were properly expressed in transfected COS-1 cells, formed disulfide-linked dimers (data not shown), and were efficiently secreted, except truncation mutant Δ190 that was expressed at a lower level in the conditioned medium (FIG. 6B).
A conserved site of four amino acids containing three basic amino-acid residues (amino-acid residues -R-K-S-R-) was previously identified as a potential site for proteolytic activation of latent PDGF-CC (Li et al, 2000). […]
To test the endogenous expression of PDGF-CC, subconfluent AG1523 cells and primary fibroblast cultures were cultured in serum-free DMEM overnight. […] In the case of the primary cultures, total protein concentration was measured and normalized (Bradford, 1976). […] PDGF-C and PDGF-D were detected by immunoblotting using affinity-purified polyclonal rabbit antibodies against PDGF-C (Li et al, 2000) and PDGF-D (Bergsten et al, 2001), respectively. […]

Experiment [3] concerns wild-type and tPA-deficient fibroblasts. Nature of the experiment: BrdU incorporation in primary fibroblasts. In kind it is cell-based, mouse. The following applies: 50 ng/ml, 24 hours BrdU labeling. The procedure: Cell nuclei were visualized with 4′,6-diamidine-2′-phenylindole dihydrochloride (DAPI), and BrdU-labeled cells were determined by immunofluorescence using antibodies to BrdU (FIG. 7B).
(§1) To monitor cell growth, both the cell proliferation reagent WST-1 (Roche) and BrdU (Sigma) were used. A total of 0.4×10^4 (WST-1) or 1×10^4 (BrdU) wild-type and tPA-deficient fibroblasts were seeded in triplicate-hexaplicate, and after attachment they were serum-starved overnight. Serum-starved cells were counted (WST-1 seeding control) and alternatively incubated for 24 hours in serum-free medium supplemented with 1 mg/ml BSA, and 50 μM BrdU in the BrdU experiment, in the absence or presence of 50 ng/ml activated PDGF-CC or tPA protein (#116, American Diagnostica Inc.). Upon counting, WST-1 reagent was added and measured according to the manufacturer's protocol using an ELISA reader. In the BrdU experiment, the cells were fixed in 4% paraformaldehyde in PBS for 30 min at room temperature and the DNA was denatured in 2M HCl for 20 min at room temperature and then blocked in 0.5% BSA, 0.5% Tween, and 10% goat serum in PBS. […] Quantification of the BrdU-positive cells was performed by counting all cells along the vertical and horizontal diameters of all wells.
(Dividing cells build labelled thymidine or BrdU into new DNA.)

Experiment [4] relates to tPA-deficient fibroblasts. Nature of the experiment: WST-1 growth assay of primary fibroblasts in serum-free medium. The following applies: 50 ng/ml added to serum-free culture medium, 24 hours. In kind it is cell-based, mouse. As for the experimental part: It was observed that primary fibroblasts derived from tPA-deficient mice grew more slowly in culture than fibroblasts derived from wild-type animals, raising the possibility that activation of latent PDGF-CC by tPA generated autocrine and paracrine growth stimulatory loops for primary fibroblasts in culture. To analyze this effect, isolated wild-type and tPA-deficient fibroblasts were serum-starved overnight, and the growth of the cells during the next 24 hours was monitored using an enzyme-based viability assay (see Example 8, Materials and Methods).
as §1, with “reader.” for “reader. In the BrdU experiment, the cells were fixed in 4% paraformaldehyde in PBS for 30 min at room temperature and the DNA was denatured in 2M HCl for 20 min at room temperature and then blocked in 0.5% BSA, 0.5% Tween, and 10% goat serum in PBS.”
A general note: Tetrazolium dyes change colour on reduction, which living cells bring about.

The conditions of experiment [5]: cornea pocket model; cited from earlier work.
For a further experiment, the target named is T1, PDGFR-α (Mus musculus, UniProt P26618).
T1 construct: endogenous in cells; host or cells: primary mouse kidney and lung fibroblasts
T1 sequence (P26618 25-1089): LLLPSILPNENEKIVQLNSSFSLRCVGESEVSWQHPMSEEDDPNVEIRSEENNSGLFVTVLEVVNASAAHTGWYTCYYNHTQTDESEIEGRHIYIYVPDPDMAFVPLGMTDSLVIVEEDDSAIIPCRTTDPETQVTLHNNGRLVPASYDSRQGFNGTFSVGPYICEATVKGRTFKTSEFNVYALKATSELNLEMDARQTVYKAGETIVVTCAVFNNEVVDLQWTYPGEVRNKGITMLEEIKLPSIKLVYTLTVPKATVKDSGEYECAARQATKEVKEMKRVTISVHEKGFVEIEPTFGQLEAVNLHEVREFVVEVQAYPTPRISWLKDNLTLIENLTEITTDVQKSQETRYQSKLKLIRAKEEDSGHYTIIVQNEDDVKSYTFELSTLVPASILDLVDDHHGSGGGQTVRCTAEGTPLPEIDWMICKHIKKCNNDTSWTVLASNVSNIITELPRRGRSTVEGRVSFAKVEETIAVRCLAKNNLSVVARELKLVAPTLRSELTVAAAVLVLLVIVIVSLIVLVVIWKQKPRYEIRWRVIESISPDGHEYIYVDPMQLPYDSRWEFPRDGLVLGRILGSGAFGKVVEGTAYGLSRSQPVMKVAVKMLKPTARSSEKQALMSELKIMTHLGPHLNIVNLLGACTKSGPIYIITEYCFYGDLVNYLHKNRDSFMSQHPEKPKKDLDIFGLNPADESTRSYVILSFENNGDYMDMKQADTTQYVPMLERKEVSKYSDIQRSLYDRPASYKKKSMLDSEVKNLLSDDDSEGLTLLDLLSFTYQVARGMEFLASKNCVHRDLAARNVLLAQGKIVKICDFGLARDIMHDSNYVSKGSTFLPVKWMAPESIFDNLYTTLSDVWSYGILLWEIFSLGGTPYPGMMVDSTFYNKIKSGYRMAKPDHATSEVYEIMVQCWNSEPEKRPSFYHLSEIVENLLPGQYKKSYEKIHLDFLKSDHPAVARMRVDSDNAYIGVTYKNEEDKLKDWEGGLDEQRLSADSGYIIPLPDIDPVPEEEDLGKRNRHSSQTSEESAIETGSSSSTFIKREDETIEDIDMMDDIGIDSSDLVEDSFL
Nature of the experiment: PDGFR-α tyrosine phosphorylation in primary fibroblasts. The class given is cell-based. The following applies: 100 ng/ml activated PDGF-CC protein. The procedure: It is known that constitutive activation of PDGFRs by PDGFs leads to receptor desensitization (Heldin and Westermark, 1999), and therefore it was investigated whether the differences observed in growth between the wild-type and tPA-deficient fibroblasts upon PDGF-CC treatment were due to differential activation of PDGFR-α. Recombinant PDGF-CC protein was applied onto the primary fibroblasts and receptor activation was measured as induction of PDGFR-α tyrosine phosphorylation (FIG. 7D, upper panel).
To monitor growth factor-induced tyrosine phosphorylation of PDGFR-α, serum-starved PAE cells stably expressing human PDGFR-α were incubated for 120 min on ice with conditioned medium from COS-1 cells transfected with full-length PDGF-C in the absence or presence of tPA. Alternatively, primary wild-type and tPA-deficient fibroblasts were stimulated with 100 ng/ml activated PDGF-CC protein. The cells were lysed as described previously (Li et al, 2000) and PDGFR-α was immunoprecipitated using a specific antiserum (Eriksson et al, 1992). Precipitated proteins were separated by SDS-PAGE under reducing conditions. Tyrosinephosphorylated receptors were detected by immunoblotting using an antiphosphotyrosine antibody (PY99, Santa Cruz). The membranes were stripped and reprobed using a polyclonal antibody against the C-terminal of the PDGFRs (CED) to detect receptor expression levels.

B1: CUB domain: free CUB domain of PDGF-C; recombinant His6-tagged (residues 23-163) or c-myc-tagged (residues 1 to 165) (protein)
chain: ESNLSSKFQFSSNKEQNGVQDPQHERIITVSTNGSIHSPRFPHTYPRNTVLVWRLVAVEENVWIQLTFDERFGLEDPEDDICKYDFVEVEEPSDGTILGRWCGSGTVPGKQISKGNQIRIRFVSDEYFPSEPGFCIHYNIVHHHHHH
B1: in the experiment on tPA [1], the “binding of tPA in pull-down” value is given as “both domains were able to interact with tPA”. In addition, the “competition for tPA-mediated processing of latent PDGF-CC” value in the experiment with tPA [2] is “efficiently competed for the interaction and processing of latent PDGF-CC by tPA”.

B2: activated PDGF-CC: activated PDGF-CC protein, growth factor without CUB domains (protein)
chain: GRKSRVVDLNLLTEEVRLYSCTPRNFSVSIREELKRTDTIFWPGCLLVKRCGGNCACCLHNCNECQCVPSKVTKKYHEVLQLRPKTGVRGLHKSLTDVALEHHEECDCVCRGSTGG
As for B2, the “BrdU incorporation in tPA-deficient cells” value in experiment [3] (serum-starved tPA-deficient fibroblasts) is on record as “strongly stimulated BrdU incorporation in the tPA-deficient cells”. Moreover, in experiment [3] (serum-starved wild-type fibroblasts), the “BrdU incorporation in wild-type cells” value is given as “had less effect on wild-type cells”. In addition, the “rescue of growth of tPA-deficient fibroblasts” value in experiment [4] is recorded as “allowed the cells to grow similar to the wild-type fibroblasts”. Moreover, the neoangiogenesis result in experiment [5] was “strong inducer of neoangiogenesis”. Moreover, the “induction of PDGFR-α tyrosine phosphorylation, tPA-deficient versus wild-type fibroblasts” value in the experiment with PDGFR-α is recorded as “more pronounced in the tPA-deficient cells as compared to wild type”.
